Key:
[1] = tested on: hexa-HIS peptide (synthetic); test: MST; settings: 20 mM Tris-HCl pH 7.4, 140 mM NaCl, 5 mM MgCl2, 1 mM CaCl2, 1 mM KCl; FLAA/MST with 0.1% BSA and 0.05% Tween 20 (FLAA at RT); SPR without BSA, 0.005% Tween 20 …
HIS-NDM-1 (New Delhi …) [2] = target: T1, HIS-NDM-1 (New Delhi metallo-beta-lactamase 1) (E. coli, UniProt C7C422 29-270); test: FLAA; signal exceeds initial library; 20 mM Tris-HCl pH 7.4, 140 mM NaCl, 5 mM MgCl2, 1 mM CaCl2, 1 mM KCl; FLAA/MST with 0.1% BSA and 0.05% Tween 20 (FLAA at RT); SPR without BSA, 0.005% Tween 20; settings: protein: commercial; tags: N-terminal His6
HIS-NDM-1 (New Delhi …) [3] = target: T1, HIS-NDM-1 (New Delhi …); test: FLAA; signal exceeds initial library; not seen in SPR; 20 mM Tris-HCl pH 7.4, 140 mM NaCl, 5 mM MgCl2, 1 mM CaCl2, 1 mM KCl; FLAA/MST with 0.1% BSA and 0.05% Tween 20 (FLAA at RT); SPR without BSA, 0.005% Tween 20; settings: protein: commercial; tags: N-terminal His6
[4] = target: T2, mPD1-HIS (mouse Programmed cell Death protein 1) (mouse, UniProt Q02242 25-169); test: SPR; protein immobilized, 1 uM aptamer; 20 mM Tris-HCl pH 7.4, 140 mM NaCl, 5 mM MgCl2, 1 mM CaCl2, 1 mM KCl; FLAA/MST with 0.1% BSA and 0.05% Tween 20 (FLAA at RT); SPR without BSA, 0.005% Tween 20; settings: protein: commercial; tags: C-terminal HIS
[5] = target: OXA-23 beta-lactamase (A. baumannii) (Acinetobacter baumannii, UniProt Q9L4P2 18-273); test: MST; 20 mM Tris pH 7.4, 140 mM NaCl, 5 mM MgCl2, 1 mM CaCl2, 1 mM KCl, 0.1% BSA, 0.05% Tween 20; settings: tags: N-His6; label: 5'-Cy5
HIS-NDM-1 (New Delhi …) [6] = target: T1, HIS-NDM-1 (New Delhi …); test: MST; 20 mM Tris-HCl pH 7.4, 140 mM NaCl, 5 mM MgCl2, 1 mM CaCl2, 1 mM KCl; FLAA/MST with 0.1% BSA and 0.05% Tween 20 (FLAA at RT); SPR without BSA, 0.005% Tween 20; settings: protein: commercial, tags: N-terminal His6
HIS-NDM-1 (New Delhi …) [7] = target: T1, HIS-NDM-1 (New Delhi …); test: SPR; aptamer immobilized; 20 mM Tris-HCl pH 7.4, 140 mM NaCl, 5 mM MgCl2, 1 mM CaCl2, 1 mM KCl; FLAA/MST with 0.1% BSA and 0.05% Tween 20 (FLAA at RT); SPR without BSA, 0.005% Tween 20; settings: protein: commercial, tags: N-terminal His6
[8] = target: CFHR1-HIS (Complement factor H-related protein 1) (UniProt Q03591 19-330); test: as above; settings: protein: commercial, tags: C-terminal HIS
[9] = target: T2, mPD1-HIS (mouse Programmed cell Death …); test: as above; settings: protein: commercial, tags: C-terminal HIS
HIS-NDM-1 (New Delhi …) [10] = target: T1, HIS-NDM-1 (New Delhi …); test: SPR; aptamer immobilized; text gives upper limit 4.43E-09; 20 mM Tris-HCl pH 7.4, 140 mM NaCl, 5 mM MgCl2, 1 mM CaCl2, 1 mM KCl; FLAA/MST with 0.1% BSA and 0.05% Tween 20 (FLAA at RT); SPR without BSA, 0.005% Tween 20; settings: protein: commercial; tags: N-terminal His6; label: 5'-BiotinTEG (SPR kinetics); 5'-Cy5 (MST); none (screens)
[11] = label: 5'-BiotinTEG (SPR), 5'-Cy5 (MST), none (FLAA)
[12] = label: 5'-BiotinTEG (SPR kinetics), 5'-Cy5 (MST), none (screens)

T2 sequence (Q02242 25-169): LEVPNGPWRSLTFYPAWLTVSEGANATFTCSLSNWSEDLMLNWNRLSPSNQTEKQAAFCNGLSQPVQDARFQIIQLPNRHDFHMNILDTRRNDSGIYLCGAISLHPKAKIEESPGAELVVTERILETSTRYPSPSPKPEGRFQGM
T1 sequence (C7C422 29-270): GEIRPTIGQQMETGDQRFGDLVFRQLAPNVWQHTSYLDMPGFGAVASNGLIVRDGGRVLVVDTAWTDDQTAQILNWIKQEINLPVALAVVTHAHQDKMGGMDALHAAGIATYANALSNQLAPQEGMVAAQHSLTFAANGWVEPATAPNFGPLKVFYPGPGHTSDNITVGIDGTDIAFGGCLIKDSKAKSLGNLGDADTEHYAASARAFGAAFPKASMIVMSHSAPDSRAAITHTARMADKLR
Chain of CFHR1-HIS (Complement factor H-related protein 1) (Q03591 19-330): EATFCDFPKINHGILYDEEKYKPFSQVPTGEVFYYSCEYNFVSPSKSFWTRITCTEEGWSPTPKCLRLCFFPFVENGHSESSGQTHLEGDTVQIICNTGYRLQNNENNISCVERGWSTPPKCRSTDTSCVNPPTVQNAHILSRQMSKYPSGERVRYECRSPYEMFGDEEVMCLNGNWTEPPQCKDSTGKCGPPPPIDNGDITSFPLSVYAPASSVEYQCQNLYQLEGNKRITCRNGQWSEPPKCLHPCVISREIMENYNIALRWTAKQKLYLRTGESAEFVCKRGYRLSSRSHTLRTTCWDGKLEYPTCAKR
Chain of OXA-23 beta-lactamase (A. baumannii) (Q9L4P2 18-273): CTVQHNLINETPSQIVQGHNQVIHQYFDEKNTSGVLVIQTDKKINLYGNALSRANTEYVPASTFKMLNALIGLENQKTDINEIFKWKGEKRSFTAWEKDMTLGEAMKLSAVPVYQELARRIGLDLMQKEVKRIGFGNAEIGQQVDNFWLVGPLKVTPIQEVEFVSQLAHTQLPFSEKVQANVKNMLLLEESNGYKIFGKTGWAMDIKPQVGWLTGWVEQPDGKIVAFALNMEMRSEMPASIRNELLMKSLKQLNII

With “GTATCTGGTGGTCTATGGCGTCATAGGTACCATGGGGGACTGCTCGGGATTGCGGATTCATGGCATAGACGACGAAGAAC [NDM1-H14-01]” the Kd [1] was 28.1 nM.

B1: NDM1-H14-02 (ssDNA)
DNA: GTATCTGGTGGTCTATGGCCAGTATGGCTGTTCAAGTCTTCAGAGGGTCTGCTCGGGATTGCGCATAGACGACGAAGAAC
B1: binds (HIS-NDM-1 (New Delhi …) [2]).

B2: NDM1-H14-25 (ssDNA)
DNA: GTATCTGGTGGTCTATGGCAAACGTTCTGAGTTAGGCTTATTTTTCTCTCTTCCCTTCGCCGCATAGACGACGAAGAAC
B2: binds (HIS-NDM-1 (New Delhi …) [3]); binds [4].

B3: NDM1-H14.2_43 (ssDNA)
DNA: GTATCTGGTGGTCTATGGCCGCTATCCGCAATCTGTCTCTTTTCTTTATTCTTTTACTCACCGCATAGACGACGAAGAAC
In the case of B3, the binding result [5] is reported as “no binding”, the Kd (HIS-NDM-1 (New Delhi …) [6]; [11]) is reported as 2820 nM and the Kd (HIS-NDM-1 (New Delhi …) [7]; [11]) is reported as 745 nM.

Molecule CGTCATAGGTACCATGGGGGACTGCTCGGGATTGCGGATTCATG (ssDNA) [NDM1-H14-01-FR] has a Kd ([8]; label: 5'-BiotinTEG) of 0.0286 nM, a Kd (HIS-NDM-1 (New Delhi …) [7]; label: 5'-BiotinTEG) of 5.91 nM and a Kd ([9]; label: 5'-BiotinTEG) of 0.125 nM.

B4: Con1 (ssDNA)
DNA: GGGAATTCGAGCTCGGTACCGGCTGCTTTGCTGCAGATTTGTGGGTGGGTGGGTGGTGATCTGCAGGCATGCAAGCTTGG
B4: no binding (HIS-NDM-1 (New Delhi …) [6]; label: 5'-Cy5).

B5: NDM1-H14-01 (ssDNA)
DNA: GTATCTGGTGGTCTATGGCGTCATAGGTACCATGGGGGACTGCTCGGGATTGCGGATTCATGGCATAGACGACGAAGAAC
With B5 the Kd (HIS-NDM-1 (New Delhi …) [10]) was 4.34 nM, the Kd [8, 12] was 0.0449 nM and the Kd [9, 12] was 0.0986 nM.

Reference: publication PMC9106695, “The use of high-affinity polyhistidine binders as masking probes for the selection of an NDM-1 specific aptamer”
